Test results as given in US20210330736A1 (UNIVERSITEIT VAN AMSTERDAM, priority 2018, published 2021).
Bridges are numbered along the chain shown (N, C = ends). Where no end group is shown, it is not given here.

B1: peptide 3 (peptide)
peptide: H-NDDCELCVNVACTGC-OH
modifications: disulfide 4-12, 7-15
SMILES: CC(C)C[C@@H]1NC(=O)[C@H](CCC(=O)O)NC(=O)[C@@H](NC(=O)[C@H](CC(=O)O)NC(=O)[C@H](CC(=O)O)NC(=O)[C@@H](N)CC(N)=O)CSSC[C@@H]2NC(=O)[C@H](C)NC(=O)[C@H](C(C)C)NC(=O)[C@H](CC(N)=O)NC(=O)[C@H](C(C)C)NC(=O)[C@H](CSSC[C@@H](C(=O)O)NC(=O)CNC(=O)[C@H]([C@@H](C)O)NC2=O)NC1=O
B2: peptide 1 (peptide)
peptide: H-NDDCELCVNVACTGCL-OH
modifications: disulfide 4-12, 7-15
SMILES: CC(C)C[C@H](NC(=O)[C@@H]1CSSC[C@@H]2NC(=O)[C@H](CC(C)C)NC(=O)[C@H](CCC(=O)O)NC(=O)[C@@H](NC(=O)[C@H](CC(=O)O)NC(=O)[C@H](CC(=O)O)NC(=O)[C@@H](N)CC(N)=O)CSSC[C@H](NC(=O)[C@H](C)NC(=O)[C@H](C(C)C)NC(=O)[C@H](CC(N)=O)NC(=O)[C@H](C(C)C)NC2=O)C(=O)N[C@@H]([C@@H](C)O)C(=O)NCC(=O)N1)C(=O)O

What was measured:
PDE7 = details: cited from earlier work
GUCY2C = GUCY2C (Homo sapiens, UniProt P25092); experiment: Th Ser40 phosphorylation in HEK cells co-transfected with Th and GUCY2C (western blot); type: cell-based; parameters: expressed in transfected cells; host or cells: HEK cells (ATCC), calcium-phosphate transfection, co-transfected with mouse Th; details: guanylin 10 μM, uroguanylin 1 μM, IBMX 100 μM, 1 hour
Chain of GUCY2C (P25092 24-1073): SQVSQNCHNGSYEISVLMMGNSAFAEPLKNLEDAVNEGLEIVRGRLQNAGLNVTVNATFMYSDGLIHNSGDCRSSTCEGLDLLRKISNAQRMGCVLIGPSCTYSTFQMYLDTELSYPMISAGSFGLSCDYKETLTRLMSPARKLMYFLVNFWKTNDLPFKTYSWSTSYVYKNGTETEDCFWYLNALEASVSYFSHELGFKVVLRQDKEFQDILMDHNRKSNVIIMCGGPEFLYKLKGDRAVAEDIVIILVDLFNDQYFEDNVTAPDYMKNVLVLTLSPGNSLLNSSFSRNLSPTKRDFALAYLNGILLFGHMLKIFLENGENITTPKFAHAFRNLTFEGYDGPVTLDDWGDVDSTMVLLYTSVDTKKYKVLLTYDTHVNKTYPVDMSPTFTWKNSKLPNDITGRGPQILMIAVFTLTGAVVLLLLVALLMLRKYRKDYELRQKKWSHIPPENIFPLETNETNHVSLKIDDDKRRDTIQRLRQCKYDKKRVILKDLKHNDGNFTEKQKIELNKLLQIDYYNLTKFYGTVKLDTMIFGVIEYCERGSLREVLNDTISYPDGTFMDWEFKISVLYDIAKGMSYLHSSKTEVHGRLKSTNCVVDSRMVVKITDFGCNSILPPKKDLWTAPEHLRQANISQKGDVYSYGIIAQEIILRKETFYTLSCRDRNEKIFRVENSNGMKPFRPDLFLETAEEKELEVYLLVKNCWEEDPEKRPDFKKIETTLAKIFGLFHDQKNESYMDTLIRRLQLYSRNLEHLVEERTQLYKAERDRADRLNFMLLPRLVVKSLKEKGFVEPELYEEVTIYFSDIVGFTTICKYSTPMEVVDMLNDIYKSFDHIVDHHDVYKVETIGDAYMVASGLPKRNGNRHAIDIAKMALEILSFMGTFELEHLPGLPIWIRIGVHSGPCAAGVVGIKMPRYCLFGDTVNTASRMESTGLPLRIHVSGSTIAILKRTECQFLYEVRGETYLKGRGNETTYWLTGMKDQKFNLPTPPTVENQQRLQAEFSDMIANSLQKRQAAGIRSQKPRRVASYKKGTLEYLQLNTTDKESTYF
Description: FIG. 4. GUCY2C activation increases Ser40 phosphorylation. Immunocytochemistry images (A) and western blotting analysis (B) of HEK cultures transfected with Th or Th+GUCY2C. (C) Co-transfected HEK cells were treated with guanylin (G) or uroguanylin (UroG) and changes in Ser40 phosphorylation were studied. The graph represents the statistical analysis (n=3 for Control, n=6 for Guanylin, n=9 for Uroguanylin; Mean±SEM). Unpaired Student's t-test (p-value: **<0.01).
FIG. 5. […] (A) HEK cultures were treated with guanylin, in the presence or absence of IBMX. […] Unpaired Student's t-test (p-values: ****<0.0001, **<0.01, *<0.05). (B) HEK cells were co-transfected with Th and either the wt GUCY2C or a gain-of-function mutant (R792S). Ser40 phosphorylation was studied following guanylin treatment (G). […] Unpaired Student's t-test (p-values: ***<0.001, **<0.01).
HEK cells were maintained in 100-mm Petri dishes and grown in DMEM medium supplemented with L-glutamine, penicillin-streptomycin (Pen&Strep) and 10% heat-inactivated fetal bovine serum (HIFBS). Growing conditions were 37° C. and 5% CO2. For every-other-day passages, HEK cultures were split at a 1:3 dilution. From Friday to Monday, the split proportion was doubled for all cell lines. For passaging, cultures were rinsed with PBS and incubated with 1 mL of trypsin during 5 minutes. Cells were resuspended in growth medium and finally split to the proper dilution. The experiments were performed in 12-well plates. For immunocytochemistry analysis, sterile 18-mm coverslips were added prior to the plating. 500 !μL of cell resuspension was seeded in each well. If experiments were to be performed 48 hours after the plate preparation, 1:5 was the seeding ratio for HEK cells. When the experiments took place 96 hours post-plating, 1:7 was the working dilution for HEK cells. Unless otherwise stated, HEK cultures were processed 96 hours post-plating.
HEK cells were transfected using the calcium-phosphate method. 12-well plates were refreshed with 500 μL of growth medium before transfection. […]

[1] = molecular target: GUCY2C R792S gain-of-function mutant (human) (UniProt P25092)
[2] = molecular target: mouse GUCY2C (endogenous, in mouse striatal slices) (mouse, UniProt Q3UWA6); experiment: cell-based or functional assay

| Molecule | P-Ser40 levels / Ser40 phosphorylation (in words) (GUCY2C) | P-S40 TH/TTH, fold change (average), mouse striatal slices, 10 µM, 1 h (WES) [2] | other results |
| --- | --- | --- | --- |
| OCCN(CCO)c1nc(N2CCCCC2)c2nc(N(CCO)CCO)nc(N3CCCCC3)c2n1 [Dipyridamole] | – | – | IC50 (PDE7): 600 nM |
| CC(C)Cn1c(=O)n(C)c(=O)c2[nH]cnc21 [IBMX, 3-isobutyl-1-methylxanthine] | potentiated the increase in Ser40 phosphorylation | – | – |
| guanylin (Example 1) (ligand) | – | – | Ser40 phosphorylation of Th upon guanylin treatment (western blot) (fold higher than with the wt receptor) [1]: 1.5 |
| uroguanylin: natural agonistic ligand of GUCY2C, 16 amino acid peptide (NDDCELCVNVACTGCL; disulfide 4-12, 7-15; UniProt Q16661 97-112, looked up) | increase P-Ser40 levels | – | – |
| B1 | – | 1.2 fold change (average) | – |
| B2 | – | 1.11 fold change (average) | – |
